IntAct's records for PubMed 31515488

B1: Protein BANP (Homo sapiens), Q8N9N5 (parent)
chain: MMSEHDLADVVQIAVEDLSPDHPVVLENHVVTDEDEPALKRQRLEINCQDPSIKTICLRLDSIEAKLQALEATCKSLEEKLDLVTNKQHSPIQVPMVAGSPLGATQTCNKVRCVVPQTTVILNNDRQNAIVAKMEDPLSNRAPDSLENVISNAVPGRRQNTIVVKVPGQEDSHHEDGESGSEASDSVSSCGQAGSQSIGSNVTLITLNSEEDYPNGTWLGDENNPEMRVRCAIIPSDMLHISTNCRTAEKMALTLLDYLFHREVQAVSNLSGQGKHGKKQLDPLTIYGIRCHLFYKFGITESDWYRIKQSIDSKCRTAWRRKQRGQSLAVKSFSRRTPNSSSYCPSEPMMSTPPPASELPQPQPQPQALHYALANAQQVQIHQIGEDGQVQVGHLHIAQVPQGEQVQITQDSEGNLQIHHVGQDGQLLEATRIPCLLAPSVFKASSGQVLQGAQLIAVASSDPAAAGVDGSPLQGSDIQVQYVQLAPVSDHTAGAQTAEALQPTLQPEMQLEHGAIQIQ
B2: 2'-5'-oligoadenylate synthase 2 (Homo sapiens), P29728 (parent)
chain: MGNGESQLSSVPAQKLGWFIQEYLKPYEECQTLIDEMVNTICDVLQEPEQFPLVQGVAIGGSYGRKTVLRGNSDGTLVLFFSDLKQFQDQKRSQRDILDKTGDKLKFCLFTKWLKNNFEIQKSLDGFTIQVFTKNQRISFEVLAAFNALSLNDNPSPWIYRELKRSLDKTNASPGEFAVCFTELQQKFFDNRPGKLKDLILLIKHWHQQCQKKIKDLPSLSPYALELLTVYAWEQGCRKDNFDIAEGVRTVLELIKCQEKLCIYWMVNYNFEDETIRNILLHQLQSARPVILDPVDPTNNVSGDKICWQWLKKEAQTWLTSPNLDNELPAPSWNVLPAPLFTTPGHLLDKFIKEFLQPNKCFLEQIDSAVNIIRTFLKENCFRQSTAKIQIVRGGSTAKGTALKTGSDADLVVFHNSLKSYTSQKNERHKIVKEIHEQLKAFWREKEEELEVSFEPPKWKAPRVLSFSLKSKVLNESVSFDVLPAFNALGQLSSGSTPSPEVYAGLIDLYKSSDLPGGEFSTCFTVLQRNFIRSRPTKLKDLIRLVKHWYKECERKLKPKGSLPPKYALELLTIYAWEQGSGVPDFDTAEGFRTVLELVTQYQQLCIFWKVNYNFEDETVRKFLLSQLQKTRPVILDPAEPTGDVGGGDRWCWHLLAKEAKEWLSSPCFKDGTGNPIPPWKVPTMQTPGSCGARIHPIVNEMFSSRSHRILNNNSKRNF
B3: Leucine rich adaptor protein 1 (Homo sapiens), Q96LR2 (parent)
chain: MEGTVESQTPDLRDVEGKVGRKTPEGLLRGLRGECELGTSGALLLPGASSTGHDLGDKIMALKMELAYLRAIDVKILQQLVTLNEGIEAVRWLLEERGTLTSHCSSLTSSQYSLTGGSPGRSRRGSWDSLPDTSTTDRLDSVSIGSFLDTVAPSELDEQGPPGAPRSEMDWAKVIAGGERARTEVDVAATRLGSLRAVWKPPGERLQGGPPESPEDESAKLGFEAHWFWEQCQDDVTFL
B4: Tuftelin-interacting protein 11 (Homo sapiens), Q9UBB9 (parent)
chain: MSLSHLYRDGEGRIDDDDDERENFEITDWDLQNEFNPNRQRHWQTKEEATYGVWAERDSDDERPSFGGKRARDYSAPVNFISAGLKKGAAEEAELEDSDDEEKPVKQDDFPKDFGPRKLKTGGNFKPSQKGFAGGTKSFMDFGSWERHTKGIGQKLLQKMGYVPGRGLGKNAQGIINPIEAKQRKGKGAVGAYGSERTTQSMQDFPVVDSEEEAEEEFQKELSQWRKDPSGSKKKPKYSYKTVEELKAKGRISKKLTAPQKELSQVKVIDMTGREQKVYYSYSQISHKHNVPDDGLPLQSQQLPQSGKEAKAPGFALPELEHNLQLLIDLTEQEIIQNDRQLQYERDMVVNLFHELEKMTEVLDHEERVISNLSKVLEMVEECERRMQPDCSNPLTLDECARIFETLQDKYYEEYRMSDRVDLAVAIVYPLMKEYFKEWDPLKDCTYGTEIISKWKSLLENDQLLSHGGQDLSADAFHRLIWEVWMPFVRNIVTQWQPRNCDPMVDFLDSWVHIIPVWILDNILDQLIFPKLQKEVENWNPLTDTVPIHSWIHPWLPLMQARLEPLYSPIRSKLSSALQKWHPSDSSAKLILQPWKDVFTPGSWEAFMVKNIVPKLGMCLGELVINPHQQHMDAFYWVIDWEGMISVSSLVGLLEKHFFPKWLQVLCSWLSNSPNYEEITKWYLGWKSMFSDQVLAHPSVKDKFNEALDIMNRAVSSNVGAYMQPGARENIAYLTHTERRKDFQYEAMQERREAENMAQRGIGVAASSVPMNFKDLIETKAEEHNIVFMPVIGKRHEGKQLYTFGRIVIYIDRGVVFVQGEKTWVPTSLQSLIDMAK
partner: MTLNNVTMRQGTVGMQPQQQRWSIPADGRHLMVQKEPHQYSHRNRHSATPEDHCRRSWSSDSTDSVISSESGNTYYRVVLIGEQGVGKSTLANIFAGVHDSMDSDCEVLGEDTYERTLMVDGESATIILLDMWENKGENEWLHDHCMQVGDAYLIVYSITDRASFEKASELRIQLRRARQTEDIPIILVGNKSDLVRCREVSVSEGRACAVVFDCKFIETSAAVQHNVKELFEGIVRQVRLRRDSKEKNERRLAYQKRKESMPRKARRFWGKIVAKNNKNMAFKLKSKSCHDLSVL

Variants of: B1
Details: with zn471_human ZNF471, Q9BX82
Chain of zn471_human ZNF471, Q9BX82 (Q9BX82 whole entry): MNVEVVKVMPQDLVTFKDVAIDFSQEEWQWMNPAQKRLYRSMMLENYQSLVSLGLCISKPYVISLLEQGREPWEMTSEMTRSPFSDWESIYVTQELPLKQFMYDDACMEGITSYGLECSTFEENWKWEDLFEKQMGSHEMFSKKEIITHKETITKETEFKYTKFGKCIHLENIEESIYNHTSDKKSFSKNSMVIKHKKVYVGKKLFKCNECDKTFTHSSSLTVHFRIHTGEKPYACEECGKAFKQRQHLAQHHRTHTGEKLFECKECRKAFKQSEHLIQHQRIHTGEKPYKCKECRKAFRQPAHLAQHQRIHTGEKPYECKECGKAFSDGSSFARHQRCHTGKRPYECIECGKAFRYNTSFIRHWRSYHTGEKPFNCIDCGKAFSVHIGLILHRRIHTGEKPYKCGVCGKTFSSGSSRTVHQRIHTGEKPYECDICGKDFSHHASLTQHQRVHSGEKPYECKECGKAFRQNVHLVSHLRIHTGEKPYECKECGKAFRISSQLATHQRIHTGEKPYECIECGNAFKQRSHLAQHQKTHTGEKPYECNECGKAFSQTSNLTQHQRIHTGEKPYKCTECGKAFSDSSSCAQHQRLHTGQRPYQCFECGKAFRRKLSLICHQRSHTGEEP

effect of a mutation on the interaction	Variant
with no effect	P348S

Variants of: B2
Details: with clk3_human CLK3, P49761
Chain of clk3_human CLK3, P49761 (P49761 whole entry, looked up): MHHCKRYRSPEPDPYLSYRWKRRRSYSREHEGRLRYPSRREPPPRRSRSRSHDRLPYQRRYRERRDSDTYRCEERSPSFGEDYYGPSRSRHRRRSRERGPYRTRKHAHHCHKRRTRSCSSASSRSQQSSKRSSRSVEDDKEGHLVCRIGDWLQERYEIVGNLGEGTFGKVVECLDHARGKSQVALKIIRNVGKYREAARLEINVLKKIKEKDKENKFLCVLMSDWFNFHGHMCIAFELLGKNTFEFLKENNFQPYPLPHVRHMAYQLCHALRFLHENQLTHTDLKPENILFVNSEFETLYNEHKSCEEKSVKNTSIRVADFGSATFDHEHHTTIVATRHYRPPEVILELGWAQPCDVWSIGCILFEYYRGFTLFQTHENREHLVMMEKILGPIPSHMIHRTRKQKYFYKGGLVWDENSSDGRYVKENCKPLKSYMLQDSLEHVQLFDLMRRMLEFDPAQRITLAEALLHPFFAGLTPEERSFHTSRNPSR

effect of a mutation on the interaction	Variant
disrupting interaction strength	R535Q
with no effect	V620M

Variants of: B3
Details: with tpm3_human TPM3, P06753
Chain of tpm3_human TPM3, P06753 (P06753 whole entry): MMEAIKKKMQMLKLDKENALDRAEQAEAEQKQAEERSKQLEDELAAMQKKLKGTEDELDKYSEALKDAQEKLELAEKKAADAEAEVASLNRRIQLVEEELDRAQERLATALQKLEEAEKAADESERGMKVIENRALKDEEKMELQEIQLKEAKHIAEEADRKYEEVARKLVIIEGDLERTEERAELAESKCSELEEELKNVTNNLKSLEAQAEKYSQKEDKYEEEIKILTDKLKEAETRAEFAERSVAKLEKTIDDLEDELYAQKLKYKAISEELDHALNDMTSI

effect of a mutation on the interaction	Variant
with no effect	M60L

Variants of: B4
Details: with gem_human GEM

effect of a mutation on the interaction	Variant
with no effect	S688L
with no effect	R8Q
